# Tested on: T1, O=C1C[C@@H](c2ccc(O)cc2)Oc2cc(O)cc(O)c21
# T1 construct: MBP fusion (pMAL-c5X) from E. coli BL21(DE3)pLysS, MBP tag cut off by factor Xa
# Assay: UPLC-Q-TOF/MS of dihydrokaempferol formed; Michaelis-Menten fit
# Assay type: biochemical, Carthamus tinctorius
# Conditions: 1 mM 2-oxoglutaric acid, 40 μM FeSO4, 2 mg/ml ascorbic acid, 100 mM tricine pH 7.5, 30 °C, naringenin 10-800 μM, unit misprinted as 'Mm'
# CtF3H (Carthamus tinctorius), sequence (chain, as listed by the source): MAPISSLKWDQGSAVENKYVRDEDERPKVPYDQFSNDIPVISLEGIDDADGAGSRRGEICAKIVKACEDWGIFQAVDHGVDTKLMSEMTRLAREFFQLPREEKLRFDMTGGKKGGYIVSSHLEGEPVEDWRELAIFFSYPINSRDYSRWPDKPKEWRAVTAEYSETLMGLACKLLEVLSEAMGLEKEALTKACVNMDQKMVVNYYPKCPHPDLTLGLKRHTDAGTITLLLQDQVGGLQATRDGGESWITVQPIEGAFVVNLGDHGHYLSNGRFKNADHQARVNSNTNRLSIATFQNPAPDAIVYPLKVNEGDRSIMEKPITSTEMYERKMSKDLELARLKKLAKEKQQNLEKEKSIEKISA
substance,measurement,value
CtF3H (Carthamus tinctorius),Km,43.75 ± 7.12 µM

# Source: paper PMC4902928, “Molecular characterization of flavanone 3-hydroxylase gene and flavonoid accumulation in two chemotyped safflower lines in response to methyl jasmonate stimulation” (BMC Plant Biology, 2016)
